Four molecules from publication PMC12141716, “An archaeal nucleoid-associated protein binds an essential motif in DNA replication origins” (Nature Communications, 2025) can be followed below.

The target of series [1] is UBP (ucm-binding protein), recombinant wild type (Sulfolobus islandicus REY15A) (UniProt F0NFD3). Description: crystal structure; DNA-free UBP, two crystal forms (C2221 and twinned P21 with four dimers in the asymmetric unit); sodium acetate pH 4.8-5.2, PEG6000, 20 °C.
Series [2] deals with T1, MCM replicative helicase, full-length recombinant (Sulfolobus islandicus REY15A, UniProt F0NF15 1-686).
T1 construct: MCM replicative helicase, Sulfolobus islandicus REY15A, SiRe_1228; The introduction and discussion call archaeal MCM a homohexamer (cited work); also called full-length MCM; recombinant MCM
T1 sequence (looked up): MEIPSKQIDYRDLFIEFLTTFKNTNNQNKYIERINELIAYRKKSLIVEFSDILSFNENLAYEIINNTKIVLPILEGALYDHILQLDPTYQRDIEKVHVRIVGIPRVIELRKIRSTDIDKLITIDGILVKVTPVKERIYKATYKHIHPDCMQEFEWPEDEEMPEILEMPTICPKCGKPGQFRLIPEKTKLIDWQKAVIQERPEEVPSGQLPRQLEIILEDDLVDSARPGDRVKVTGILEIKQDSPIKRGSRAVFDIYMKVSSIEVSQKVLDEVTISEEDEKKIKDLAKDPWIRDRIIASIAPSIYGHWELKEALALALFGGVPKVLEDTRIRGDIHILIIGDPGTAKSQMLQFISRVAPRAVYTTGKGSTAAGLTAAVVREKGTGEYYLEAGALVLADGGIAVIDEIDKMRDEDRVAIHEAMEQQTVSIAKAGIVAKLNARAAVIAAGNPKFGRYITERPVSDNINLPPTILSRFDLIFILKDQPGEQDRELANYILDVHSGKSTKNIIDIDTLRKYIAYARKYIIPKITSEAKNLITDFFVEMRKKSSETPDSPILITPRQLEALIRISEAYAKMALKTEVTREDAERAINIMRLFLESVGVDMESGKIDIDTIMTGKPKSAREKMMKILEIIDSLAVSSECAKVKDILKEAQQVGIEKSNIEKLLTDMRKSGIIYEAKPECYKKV
Briefly: MCM recruitment (in vitro loading) assay on bead-bound origin DNA; 200 pM DNA on magnetic beads, UBP and/or Orc1-1 E147A 1 µM, 2 mM ATP, 50 °C, MCM 12.9 nM; washes with binding buffer and with 500 mM potassium acetate; western blot. To be noted: both partners purified.

The target in series [3] is T2, UBP (Sulfolobus islandicus REY15A, UniProt F0NFD3 1-111).
T2 sequence: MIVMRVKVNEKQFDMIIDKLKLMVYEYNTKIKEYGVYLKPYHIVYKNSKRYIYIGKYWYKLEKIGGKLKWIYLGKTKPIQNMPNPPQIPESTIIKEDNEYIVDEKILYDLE
Briefly: EMSA; 0-740 nM UBP; EMSA: 50 mM K-acetate, 20 mM Tris-acetate, 10 mM Mg-acetate, 1 mM DTT, pH 7.9, 5-10% glycerol, 70 mM NaCl, 800 ng salmon sperm DNA per 10 ul, room temperature 10 min; footprinting same buffer, 4% glycerol, 8000 ng salmon sperm DNA; pull-down 25 mM HEPES pH 7.5, 150 mM NaCl, 10 mM MgCl, 100 uM ZnCl, 10 mM DTT, 48 C. The following applies: protein: recombinant; tags: MBP tag removed by Factor Xa; 3 extra vector residues at N-terminus; chain copies: 2; label: 5'-32P; blunt.

Series [4] concerns the target T2, UBP. Briefly: EMSA; up to 740 nM UBP; EMSA: 50 mM K-acetate, 20 mM Tris-acetate, 10 mM Mg-acetate, 1 mM DTT, pH 7.9, 5-10% glycerol, 70 mM NaCl, 800 ng salmon sperm DNA per 10 ul, room temperature 10 min; footprinting same buffer, 4% glycerol, 8000 ng salmon sperm DNA; pull-down 25 mM HEPES pH 7.5, 150 mM NaCl, 10 mM MgCl, 100 uM ZnCl, 10 mM DTT, 48 C. To be noted: protein: recombinant; tags: MBP tag removed by Factor Xa; 3 extra vector residues at N-terminus; chain copies: 2; label: 5'-32P. A general note: Mobility shift assays separate free from complexed probe on a gel.

Turning to “UBP (ucm-binding protein), recombinant wild type (from UniProt F0NFD3 1-111)”, the stoichiometry N – broadly, the number of molecules, sites or subunits per partner or assembly – in series [1] worked out at 2.

B1: Orc1-1 E147A (Walker B mutant) (natural protein, Sulfolobus islandicus REY15A, UniProt F0NBP2 1-397, looked up)
chain: MSDIIDEVISSFRTSSIFVNREYLMPDYIPDELPHRENQIRKIASILAPLYREEKPNNIFIYGLTGTGKTAVVKFVLSRFHKKFLGKFKYIYINTRQIDTPYRVLADLLESLDVKVPFTGLSIAELYRRLVKAIREYDSQVVIVLDAIDAFVKRYNDDILYKLSRINSEVNRSKVSFIGITNDVKFVDLLDPRVKSSLSEEEIVFPPYNAEELEDILTKRAQMAFRPGVLPDNVIRLCAALAAREHGDARRALDLLRVAGEIAERLKDSKVKEEYVHLAKEEIERDRVRDIILTLPFHSKLVLTAVASMSSEDNVVLTTGAVYETYLNICKKLGVEPITQRRVSDIINELDMVGILRAKVVNRGRYGKTKEIGLAVDKNIIVKSLIESDSRFADLWG
notes: Orc1-1 replication initiator, Sulfolobus islandicus REY15A, SiRe_1740
Regarding B1, the binding result in series [2] is reported as “binds”.

B2: ucm 20 bp (P17/P18) (dsDNA)
DNA 1: AACCATTATACAAAAGAATT
DNA 2: AATTCTTTTGTATAATGGTT
In the case of B2, the binding result in series [3] is reported as “binds”.

Regarding AACCATTATACAAAAGAATT (ssDNA) [ucm 20 nt top strand (P17)], the binding result in series [4] is recorded as “no binding”.
